According to PMC7036032 (Molecular cell, 2019):

B1: MBP-CPSF100 (full length) (natural protein, human, UniProt Q9P2I0 1-782, looked up)
chain: MTSIIKLTTLSGVQEESALCYLLQVDEFRFLLDCGWDEHFSMDIIDSLRKHVHQIDAVLLSHPDPLHLGALPYAVGKLGLNCAIYATIPVYKMGQMFMYDLYQSRHNTEDFTLFTLDDVDAAFDKIQQLKFSQIVNLKGKGHGLSITPLPAGHMIGGTIWKIVKDGEEEIVYAVDFNHKREIHLNGCSLEMLSRPSLLITDSFNATYVQPRRKQRDEQLLTNVLETLRGDGNVLIAVDTAGRVLELAQLLDQIWRTKDAGLGVYSLALLNNVSYNVVEFSKSQVEWMSDKLMRCFEDKRNNPFQFRHLSLCHGLSDLARVPSPKVVLASQPDLECGFSRDLFIQWCQDPKNSIILTYRTTPGTLARFLIDNPSEKITEIELRKRVKLEGKELEEYLEKEKLKKEAAKKLEQSKEADIDSSDESDIEEDIDQPSAHKTKHDLMMKGEGSRKGSFFKQAKKSYPMFPAPEERIKWDEYGEIIKPEDFLVPELQATEEEKSKLESGLTNGDEPMDQDLSDVPTKCISTTESIEIKARVTYIDYEGRSDGDSIKKIINQMKPRQLIIVHGPPEASQDLAECCRAFGGKDIKVYMPKLHETVDATSETHIYQVRLKDSLVSSLQFCKAKDAELAWIDGVLDMRVSKVDTGVILEEGELKDDGEDSEMQVEAPSDSSVIAQQKAMKSLFGDDEKETGEESEIIPTLEPLPPHEVPGHQSVFMNEPRLSDFKQVLLREGIQAEFVGGVLVCNNQVAVRRTETGRIGLEGCLCQDFYRIRDLLYEQYAIV
B2: human CPSF30-Fip1(1-243) complex (complex)
chain 1: MQEIIASVDHIKFDLEIAVEQQLGAQPLPFPGMDKSGAAVCEFFLKAACGKGGMCPFRHISGEKTVVCKHWLRGLCKKGDQCEFLHEYDMTKMPECYFYSKFGECSNKECPFLHIDPESKIKDCPWYDRGFCKHGPLCRHRHTRRVICVNYLVGFCPEGPSCKFMHPRFELPMGTTEQPPLPQQTQPPAKQRTPQVIGVMQSQNSSAGNRGPRPLEQVTCYKCGEKGHYANRCTKGHLAFLSGQ
chain 2: MSAGEVERLVSELSGGTGGDEEEEWLYGGPWDVHVHSDLAKDLDENEVERPEEENASANPPSGIEDETAENGVPKPKVTETEDDSDSDSDDDEDDVHVTIGDIKTGAPQYGSYGTAPVNLNIKTGGRVYGTTGTKVKGVDLDAPGSINGVPLLEVDLDSFEDKPWRKPGADLSDYFNYGFNEDTWKAYCEKQKRIRMGLEVIPVTSTTNKITAEDCTMEVTPGAEIQDGRFNLFKVQQGRTGN
B3: CPSF30 (isoform 2) (natural protein, human, UniProt O95639-2 1-244, looked up)
chain: MQEIIASVDHIKFDLEIAVEQQLGAQPLPFPGMDKSGAAVCEFFLKAACGKGGMCPFRHISGEKTVVCKHWLRGLCKKGDQCEFLHEYDMTKMPECYFYSKFGECSNKECPFLHIDPESKIKDCPWYDRGFCKHGPLCRHRHTRRVICVNYLVGFCPEGPSCKFMHPRFELPMGTTEQPPLPQQTQPPAKQRTPQVIGVMQSQNSSAGNRGPRPLEQVTCYKCGEKGHYANRCTKGHLAFLSGQ

How the values were obtained:
[1] = target: T1, human CPSF160-WDR33 (1-572) complex (human, UniProt Q10570 1-1443; Q9C0J8 1-572); assay: pull-down
[2] = target: T1, human CPSF160-WDR33 (1-572) complex; assay: SEC
[3] = target: T1, human CPSF160-WDR33 (1-572) complex; assay: cryo-EM structure

T1 sequence (Q10570 whole entry, chain 1 of 2): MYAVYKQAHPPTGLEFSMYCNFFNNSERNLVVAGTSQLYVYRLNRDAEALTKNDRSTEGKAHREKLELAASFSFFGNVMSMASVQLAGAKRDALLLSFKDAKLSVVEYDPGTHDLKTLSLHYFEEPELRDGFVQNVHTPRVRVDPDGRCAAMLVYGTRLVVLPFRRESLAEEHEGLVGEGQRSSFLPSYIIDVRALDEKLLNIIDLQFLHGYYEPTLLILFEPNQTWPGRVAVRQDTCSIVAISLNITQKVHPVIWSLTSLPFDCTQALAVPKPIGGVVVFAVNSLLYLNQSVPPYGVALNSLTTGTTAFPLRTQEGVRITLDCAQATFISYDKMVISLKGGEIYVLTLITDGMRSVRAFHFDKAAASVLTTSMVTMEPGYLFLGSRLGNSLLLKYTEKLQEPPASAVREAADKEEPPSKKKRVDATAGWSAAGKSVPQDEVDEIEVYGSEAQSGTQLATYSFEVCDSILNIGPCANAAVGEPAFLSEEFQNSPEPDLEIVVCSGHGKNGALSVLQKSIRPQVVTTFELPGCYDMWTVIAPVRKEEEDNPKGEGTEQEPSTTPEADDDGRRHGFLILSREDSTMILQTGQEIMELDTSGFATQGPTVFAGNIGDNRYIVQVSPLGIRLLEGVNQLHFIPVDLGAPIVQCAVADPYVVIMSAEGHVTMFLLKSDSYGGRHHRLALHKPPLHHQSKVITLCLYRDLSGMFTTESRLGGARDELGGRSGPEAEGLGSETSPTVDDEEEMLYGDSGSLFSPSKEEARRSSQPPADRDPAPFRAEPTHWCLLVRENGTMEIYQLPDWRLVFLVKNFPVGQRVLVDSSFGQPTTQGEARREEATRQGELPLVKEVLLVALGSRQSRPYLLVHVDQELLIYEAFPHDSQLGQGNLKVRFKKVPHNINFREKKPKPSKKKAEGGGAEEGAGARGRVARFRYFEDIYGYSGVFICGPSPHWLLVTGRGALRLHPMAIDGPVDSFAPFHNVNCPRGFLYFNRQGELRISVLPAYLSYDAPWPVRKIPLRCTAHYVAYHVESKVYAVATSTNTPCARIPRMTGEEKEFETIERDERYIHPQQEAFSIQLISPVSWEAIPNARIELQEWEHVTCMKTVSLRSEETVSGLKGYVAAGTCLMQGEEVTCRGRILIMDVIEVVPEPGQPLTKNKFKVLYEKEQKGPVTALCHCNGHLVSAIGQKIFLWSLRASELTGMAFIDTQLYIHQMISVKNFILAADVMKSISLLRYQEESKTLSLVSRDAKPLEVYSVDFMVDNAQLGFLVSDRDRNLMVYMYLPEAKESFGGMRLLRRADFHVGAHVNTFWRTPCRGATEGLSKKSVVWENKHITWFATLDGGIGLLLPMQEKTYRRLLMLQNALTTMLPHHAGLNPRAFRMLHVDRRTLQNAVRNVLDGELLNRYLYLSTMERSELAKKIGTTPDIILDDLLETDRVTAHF
T1 sequence (Q9C0J8 1-572, chain 2 of 2): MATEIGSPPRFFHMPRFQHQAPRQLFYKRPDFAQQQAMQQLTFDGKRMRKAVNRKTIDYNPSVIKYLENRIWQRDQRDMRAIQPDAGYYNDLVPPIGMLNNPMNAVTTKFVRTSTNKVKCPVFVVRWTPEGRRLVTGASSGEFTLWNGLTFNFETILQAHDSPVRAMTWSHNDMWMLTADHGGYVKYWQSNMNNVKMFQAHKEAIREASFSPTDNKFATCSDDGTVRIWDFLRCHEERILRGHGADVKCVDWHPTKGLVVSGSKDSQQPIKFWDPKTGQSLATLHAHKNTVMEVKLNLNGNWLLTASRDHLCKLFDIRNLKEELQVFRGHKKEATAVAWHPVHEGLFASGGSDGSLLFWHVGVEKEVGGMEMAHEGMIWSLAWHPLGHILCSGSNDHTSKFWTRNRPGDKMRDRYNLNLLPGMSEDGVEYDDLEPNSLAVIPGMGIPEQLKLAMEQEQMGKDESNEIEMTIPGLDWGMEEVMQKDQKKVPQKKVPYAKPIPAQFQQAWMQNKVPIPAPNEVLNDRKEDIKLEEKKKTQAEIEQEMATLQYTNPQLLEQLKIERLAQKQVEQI

Row | Binder | binding result [1] | also measured
1 | SYPMFPAPEERIKWDEYGEIIKPEDFL (domain or fragment, human, UniProt Q9P2I0 460-486, looked up) [MBP-CPSF100 (460-486)] | binds | –
2 | B1 | binds | –
3 | B2 | – | binding result [2]: binds
4 | B3 | – | binding result [3]: binds
